Reference: publication PMC7026264, “Crystal structures of N-terminal WRKY transcription factors and DNA complexes”

Columns and labels:
AtWRKY1-N [1] = target: T1, AtWRKY1-N (Arabidopsis, UniProt Q9SI37 108-169); assay: ITC; ITC: 25 mM HEPES pH 7.0, 100 mM NaCl, 20 C, 0.25 mM protein into 0.026 mM DNA; EMSA: 25 mM HEPES pH 7.0, 100 mM NaCl, 5% glycerol, 6 pmol DNA in 6 ul, 4 C 20 min; conditions: protein: recombinant; tags: C-terminal His; blunt
AtWRKY1-C = AtWRKY1-C (Arabidopsis, UniProt Q9SI37 301-366); assay: as above; conditions: protein: recombinant; tags: C-terminal His; blunt
AtWRKY1 101-339 = AtWRKY1 101-339 (Arabidopsis, UniProt Q9SI37-2 101-339); assay: ITC; N=0.5, two DNA per protein; 0.11 mM protein into 0.026 mM DNA; ITC: 25 mM HEPES pH 7.0, 100 mM NaCl, 20 C, 0.25 mM protein into 0.026 mM DNA; EMSA: 25 mM HEPES pH 7.0, 100 mM NaCl, 5% glycerol, 6 pmol DNA in 6 ul, 4 C 20 min; conditions: protein: recombinant; tags: C-terminal His; blunt
AtWRKY2-N = AtWRKY2-N (Arabidopsis, UniProt Q9FG77 270-332); assay: crystal structure; 2.4 A; zinc finger; ITC: 25 mM HEPES pH 7.0, 100 mM NaCl, 20 C, 0.25 mM protein into 0.026 mM DNA; EMSA: 25 mM HEPES pH 7.0, 100 mM NaCl, 5% glycerol, 6 pmol DNA in 6 ul, 4 C 20 min; conditions: protein: recombinant; tags: C-terminal His; 5' overhang 1 nt at each end
AtWRKY1-N [2] = target: T1, AtWRKY1-N; assay: crystal structure; 3.0 A; zinc finger; ITC: 25 mM HEPES pH 7.0, 100 mM NaCl, 20 C, 0.25 mM protein into 0.026 mM DNA; EMSA: 25 mM HEPES pH 7.0, 100 mM NaCl, 5% glycerol, 6 pmol DNA in 6 ul, 4 C 20 min; conditions: protein: recombinant; tags: C-terminal His; 5' overhang 1 nt at each end
AtWRKY33-N = AtWRKY33-N (Arabidopsis, UniProt Q8S8P5 185-242); assay: as above; conditions: protein: recombinant; tags: C-terminal His; 5' overhang 1 nt at each end
AtWRKY1-N [3] = target: T1, AtWRKY1-N; assay: ITC; ITC: 25 mM HEPES pH 7.0, 100 mM NaCl, 20 C, 0.25 mM protein into 0.026 mM DNA; EMSA: 25 mM HEPES pH 7.0, 100 mM NaCl, 5% glycerol, 6 pmol DNA in 6 ul, 4 C 20 min; conditions: protein: recombinant; tags: C-terminal His; blunt; remark: listed apart in the source
AtWRKY1-N [4] = target: T1, AtWRKY1-N; assay: as above; conditions: protein: recombinant; tags: C-terminal His; blunt; remark: listed apart in the source
AtWRKY1-N K122A = AtWRKY1-N K122A (Arabidopsis, UniProt Q9SI37 108-169, K122A); assay: EMSA; ITC: 25 mM HEPES pH 7.0, 100 mM NaCl, 20 C, 0.25 mM protein into 0.026 mM DNA; EMSA: 25 mM HEPES pH 7.0, 100 mM NaCl, 5% glycerol, 6 pmol DNA in 6 ul, 4 C 20 min; conditions: protein: recombinant; tags: C-terminal His; label: 5' Cy3 on strand 1; blunt
AtWRKY1-N R135A = AtWRKY1-N R135A (Arabidopsis, UniProt Q9SI37 108-169, R135A); assay: as above; conditions: protein: recombinant; tags: C-terminal His; label: 5' Cy3 on strand 1; blunt
AtWRKY1-N Y119A = AtWRKY1-N Y119A (Arabidopsis, UniProt Q9SI37 108-169, Y119A); assay: as above; conditions: protein: recombinant; tags: C-terminal His; label: 5' Cy3 on strand 1; blunt
AtWRKY1-N Y133A = AtWRKY1-N Y133A (Arabidopsis, UniProt Q9SI37 108-169, Y133A); assay: as above; conditions: protein: recombinant; tags: C-terminal His; label: 5' Cy3 on strand 1; blunt
AtWRKY1-N Q121A = AtWRKY1-N Q121A (Arabidopsis, UniProt Q9SI37 108-169, Q121A); assay: as above; conditions: protein: recombinant; tags: C-terminal His; label: 5' Cy3 on strand 1; blunt
AtWRKY1-N R117A = AtWRKY1-N R117A (Arabidopsis, UniProt Q9SI37 108-169, R117A); assay: as above; conditions: protein: recombinant; tags: C-terminal His; label: 5' Cy3 on strand 1; blunt
AtWRKY1-N K118A = AtWRKY1-N K118A (Arabidopsis, UniProt Q9SI37 108-169, K118A); assay: as above; conditions: protein: recombinant; tags: C-terminal His; label: 5' Cy3 on strand 1; blunt
AtWRKY1-N K144A = AtWRKY1-N K144A (Arabidopsis, UniProt Q9SI37 108-169, K144A); assay: as above; conditions: protein: recombinant; tags: C-terminal His; label: 5' Cy3 on strand 1; blunt
Chain of AtWRKY1-N K144A (Q9SI37 108-169 K144A): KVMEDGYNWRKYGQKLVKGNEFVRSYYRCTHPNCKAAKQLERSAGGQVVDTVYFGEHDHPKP

T1 sequence (Q9SI37 108-169): as the sequence (Q9SI37 108-169 K144A) above, with A37K counted along it
Chain of AtWRKY1-N R135A (Q9SI37 108-169 R135A): as the sequence (Q9SI37 108-169 K144A) above, with R28A, A37K counted along it
Chain of AtWRKY1-C (Q9SI37 301-366): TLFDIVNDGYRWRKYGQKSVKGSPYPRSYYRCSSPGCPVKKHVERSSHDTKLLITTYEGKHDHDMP
Chain of AtWRKY2-N (Q9FG77 270-332): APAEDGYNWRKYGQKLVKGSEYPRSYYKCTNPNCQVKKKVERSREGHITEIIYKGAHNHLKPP
Chain of AtWRKY33-N (Q8S8P5 185-242): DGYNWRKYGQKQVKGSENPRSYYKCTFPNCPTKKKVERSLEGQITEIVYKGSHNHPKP
Chain of AtWRKY1-N K122A (Q9SI37 108-169 K122A): as the sequence (Q9SI37 108-169 K144A) above, with K15A, A37K counted along it
Chain of AtWRKY1-N Y133A (Q9SI37 108-169 Y133A): as the sequence (Q9SI37 108-169 K144A) above, with Y26A, A37K counted along it
Chain of AtWRKY1-N K118A (Q9SI37 108-169 K118A): as the sequence (Q9SI37 108-169 K144A) above, with K11A, A37K counted along it
Chain of AtWRKY1-N Y119A (Q9SI37 108-169 Y119A): as the sequence (Q9SI37 108-169 K144A) above, with Y12A, A37K counted along it
Chain of AtWRKY1 101-339 (Q9SI37 other isoform, or with tags, fused parts or gaps): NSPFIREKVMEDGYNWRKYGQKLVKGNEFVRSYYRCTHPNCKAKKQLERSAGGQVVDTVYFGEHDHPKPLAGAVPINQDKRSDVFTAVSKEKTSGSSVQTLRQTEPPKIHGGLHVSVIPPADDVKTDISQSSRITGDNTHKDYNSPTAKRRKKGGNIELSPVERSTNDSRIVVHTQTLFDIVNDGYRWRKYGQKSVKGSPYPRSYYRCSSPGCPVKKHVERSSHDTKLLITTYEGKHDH
Chain of AtWRKY1-N R117A (Q9SI37 108-169 R117A): as the sequence (Q9SI37 108-169 K144A) above, with R10A, A37K counted along it
Chain of AtWRKY1-N Q121A (Q9SI37 108-169 Q121A): as the sequence (Q9SI37 108-169 K144A) above, with Q14A, A37K counted along it

B1: W-box DNA for ITC (dsDNA)
DNA 1: CGCCTTTGACCAGCGC
DNA 2: GCGCTGGTCAAAGGCG
B1 was tested, and the Kd (AtWRKY1-N [1]) was roughly 100 nM, the Kd (AtWRKY1-C) was 1300 nM and the Kd (AtWRKY1 101-339) was 500 nM.

B2: W-box DNA for crystallization (15 bp) (dsDNA)
DNA 1: AGCCTTTGACCAGCG
DNA 2: TCGCTGGTCAAAGGC
B2: binds (AtWRKY2-N); binds (AtWRKY1-N [2]); binds (AtWRKY33-N).

B3: G6' to T6' (dsDNA)
DNA 1: GCGCTTGTCAAAGGCG
DNA 2: CGCCTTTGACAAGCGC
For B3, the binding signal (AtWRKY1-N [3]) was 2.5 fold decrease in affinity vs W-box.

B4: G7'C9' to A7'A9' (dsDNA)
DNA 1: CGCCTTTTATCAGCGC
DNA 2: GCGCTGATAAAAGGCG
Binder B4 has a Kd (AtWRKY1-N [1]) of 7600 nM.

B5: T8' to A8' (dsDNA)
DNA 1: CGCCTTTGTCCAGCGC
DNA 2: GCGCTGGACAAAGGCG
For B5, the binding signal (AtWRKY1-N [4]) was 12 fold decrease in affinity vs W-box.

B6: W-box DNA for EMSA (dsDNA)
DNA 1: CGCCTTTGACCAGCGC
DNA 2: GCGCTGGTCAAAGGCG
B6: no binding (AtWRKY1-N K122A); no binding (AtWRKY1-N R135A); binds (AtWRKY1-N Y119A). B6: no binding (AtWRKY1-N Y133A); no binding (AtWRKY1-N Q121A); binds (AtWRKY1-N R117A). B6: binds (AtWRKY1-N K118A); no binding (AtWRKY1-N K144A).

B7: T6T7 to C6G7 (dsDNA)
DNA 1: CGCCTCGGACCAGCGC
DNA 2: GCGCTGGTCCGAGGCG
B7 was tested, and the binding signal (AtWRKY1-N [4]) was 4.5 fold decrease in affinity vs W-box.
